# Data taken from patent US20110311569A1.
# Like-named read-outs stand apart in the source and are kept apart here.
# Legend:
# Assay in all cases: cell-based or functional assay
# [1] = molecular target: SF162 Env with V3 substitution D25E (HIV-1 isolate SF162) (UniProt P19551)
# [2] = molecular target: SF162 Env with clade A1 consensus V3 region (HIV-1 isolate SF162; HIV-1 clade A1 consensus) (UniProt P19551)
# [3] = molecular target: SF162 Env with V3 substitution A22T (HIV-1 isolate SF162) (UniProt P19551)
# [4] = molecular target: HIV-1 SF162 Env (parental) (HIV-1 isolate SF162) (UniProt P19551)
# [5] = molecular target: JR-FL Env N160K/E168K mutant (HIV-1 isolate JR-FL)
# [6] = molecular target: SF162 Env with clade F consensus V3 region (HIV-1 isolate SF162; HIV-1 clade F consensus) (UniProt P19551)
# [7] = molecular target: SF162 Env with clade C consensus V3 region (HIV-1 isolate SF162; HIV-1 clade C consensus) (UniProt P19551)
# [8] = molecular target: SF162 Env with CRF02_AG consensus V3 region (HIV-1 isolate SF162; HIV-1 CRF02_AG consensus) (UniProt P19551)
# [9] = molecular target: SF162 Env with clade H consensus V3 region (HIV-1 isolate SF162; HIV-1 clade H consensus) (UniProt P19551)
# [10] = molecular target: SF162 Env with GKV at positions 167-169 (HIV-1 isolate SF162) (UniProt P19551)
# [11] = molecular target: SF162 Env with CRF01_AE consensus V3 region (HIV-1 isolate SF162; HIV-1 CRF01_AE consensus) (UniProt P19551)
# [12] = molecular target: SF162 Env with clade B consensus V3 region (identical to that of JR-FL) (HIV-1 isolate SF162; HIV-1 clade B consensus) (UniProt P19551)
# [13] = molecular target: SF162 Env with V3 substitution T13H (HIV-1 isolate SF162) (UniProt P19551)
# [14] = molecular target: JR-FL Env with GK at positions 167-168 (HIV-1 isolate JR-FL)
# [15] = molecular target: SF162 Env with NI at positions 160-161 (HIV-1 isolate SF162) (UniProt P19551)
# [16] = molecular target: HIV-1 SF162 Env (parental) (HIV-1 isolate SF162) (UniProt P19551); remark: listed apart in the source
# [17] = molecular target: chimeric JR-FL Env with the V1/V2 domain of SF162 (HIV-1 isolate JR-FL; HIV-1 isolate SF162) (UniProt P19551)
# [18] = molecular target: SF162 Env with GKV at positions 167-169 (HIV-1 isolate SF162) (UniProt P19551); remark: listed apart in the source
# [19] = molecular target: chimeric SF162 Env with the V1/V2 domain of JR-FL (HIV-1 isolate SF162; HIV-1 isolate JR-FL) (UniProt P19551)
# [20] = molecular target: HIV-1 JR-FL Env (parental) (HIV-1 isolate JR-FL)
# [21] = molecular target: SF162 Env with clade B consensus V3 region (identical to that of JR-FL) (HIV-1 isolate SF162; HIV-1 clade B consensus) (UniProt P19551); remark: listed apart in the source
# [22] = molecular target: SF162 Env with NI at positions 160-161 and GKV at positions 167-169 (HIV-1 isolate SF162) (UniProt P19551)
substance,measurement,setting,value
monoclonal antibody 2909,fold increase in ND50 over SF162,[1],2.3 fold
same,ND50 (pseudovirus neutralization),[2],0.0064 µg/mL
same,ND50 ratio (fold increase in ND50 over the SF162 sequence),[2],110 fold
same,fold increase in ND50 over SF162,[3],46 fold
same,ND50 (pseudovirus neutralization),[4],5.8e-05 µg/mL
same,ND50 (pseudovirus neutralization),[5],< 0.04 ng/mL
same,neutralization potency relative to 2F5,[5],> 140 fold
same,neutralization potency relative to 2G12,[5],> 500 fold
same,neutralization potency relative to IgG-b12,[5],20 fold
same,neutralization potency relative to a pool of potent V3-specific mAbs,[5],4000 fold
same,percent neutralization at 20 ng/ml (% neutralization at 20 ng/ml),[5],> 99
same,ND50 (pseudovirus neutralization),[6],0.0076 µg/mL
same,ND50 ratio (fold increase in ND50 over the SF162 sequence),[6],131 fold
same,ND50 (pseudovirus neutralization),[7],0.0048 µg/mL
same,ND50 ratio (fold increase in ND50 over the SF162 sequence),[7],83 fold
same,ND50 (pseudovirus neutralization),[8],0.037 µg/mL
same,ND50 ratio (fold increase in ND50 over the SF162 sequence),[8],637 fold
same,ND50 (pseudovirus neutralization),[9],0.17 µg/mL
same,ND50 ratio (fold increase in ND50 over the SF162 sequence),[9],2930 fold
same,"fold increase in 2909 concentration required for 50% neutralization, over SF162",[10],> 1000 fold
same,ND50 (pseudovirus neutralization),[11],> 20 µg/mL
same,ND50 ratio (fold increase in ND50 over the SF162 sequence),[11],> 344000 fold
same,ND50 (pseudovirus neutralization),[12],0.051 µg/mL
same,ND50 ratio (fold increase in ND50 over the SF162 sequence),[12],879 fold
same,fold increase in ND50 over SF162,[13],8.3 fold
same,ND50 (pseudovirus neutralization),[14],> 10 µg/mL
same,ND50 (pseudovirus neutralization),[15],> 10 µg/mL
same,ND50 (pseudovirus neutralization),[16],0.00049 µg/mL
same,ND50 (pseudovirus neutralization),[17],0.065 µg/mL
same,ND50 (pseudovirus neutralization),[18],0.54 µg/mL
same,ND50 (pseudovirus neutralization),[19],> 10 µg/mL
same,ND50 (pseudovirus neutralization),[20],> 10 µg/mL
same,ND50 (pseudovirus neutralization),[21],0.145 µg/mL
same,ND50 (pseudovirus neutralization),[22],> 10 µg/mL
